Laboratory results as given in the supplement of paper PMC5998384.

How the values were obtained:
[1] = tested on: HeLa Kyoto; assay: solubility in G1/S (NP-40 vs SDS abundance) (log2 ratio); higher = more soluble; details: cell cycle stage: G1/S
[2] = tested on: HeLa Kyoto; assay: melting temperature (median over replicates), in situ; higher = more thermally stable
[3] = tested on: HeLa Kyoto; assay: thermal stability score vs G1/S (z-score of summed log2 fold changes over temperatures); higher = more thermally stable than in G1/S
[4] = tested on: HeLa Kyoto; assay: solubility change mitosis vs G1/S (difference of NP-40 vs SDS log2 ratios) (log2 ratio difference); higher = more soluble in mitosis
[5] = cell cycle stage: early G1 (4.5 h after nocodazole release)
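For melting temperature (median over replicates), in situ in this document: HeLa Kyoto cells synchronized by double thymidine or nocodazole block, proteins quantified by TMT10plex mass spectrometry, three independent biological replicates.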
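For solubility change mitosis vs G1/S (difference of NP-40 vs SDS log2 ratios) in this document: synchronized HeLa Kyoto cells (double thymidine block for G1/S, nocodazole release for mitosis), protein amounts in NP-40 versus SDS lysates quantified by mass spectrometry, three biological replicates.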
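For solubility in G1/S (NP-40 vs SDS abundance) in this document: HeLa Kyoto cells arrested at G1/S by double thymidine block, proteins quantified by TMT10plex mass spectrometry in mild NP-40 versus SDS extracts, three biological replicates.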
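For thermal stability score vs G1/S (z-score of summed log2 fold changes over temperatures) in this document: synchronized HeLa Kyoto cells, proteins quantified by TMT10plex mass spectrometry, three biological replicates, mitosis taken 0.5 h after nocodazole release, G1/S directly after double thymidine block.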

CHID1, sequence (chain, as listed by the source): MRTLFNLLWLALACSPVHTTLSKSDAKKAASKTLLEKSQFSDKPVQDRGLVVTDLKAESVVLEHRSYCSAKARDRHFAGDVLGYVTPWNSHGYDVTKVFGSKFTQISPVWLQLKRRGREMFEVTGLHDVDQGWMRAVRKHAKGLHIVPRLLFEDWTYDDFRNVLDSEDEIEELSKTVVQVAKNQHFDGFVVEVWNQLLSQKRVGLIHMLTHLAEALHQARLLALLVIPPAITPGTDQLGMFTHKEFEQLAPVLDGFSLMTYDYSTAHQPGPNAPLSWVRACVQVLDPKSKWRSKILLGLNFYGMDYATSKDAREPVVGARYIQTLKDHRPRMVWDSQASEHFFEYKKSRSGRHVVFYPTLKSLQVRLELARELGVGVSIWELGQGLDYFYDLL

Substance | solubility in G1/S (log2) [1] | melting temperature ([2]; cell cycle stage: G1/S) [°C] | melting temperature ([2]; cell cycle stage: mitosis) [°C] | thermal stability score [3, 5] | thermal stability score ([3]; cell cycle stage: mitosis) | solubility change mitosis (log2) [4]
MAAAMPLALLVLLLLGPGGWCLAEPPRDSLREELVITPLPSGDVAATFQFRTRWDSELQREGVSHYRLFPKALGQLISKYSLRELHLSFTQGFWRTRYWGPPFLQAPSGAELWVWFQDTVTDVDKSWKELSNVLSGIFCASLNFIDSTNTVTPTASFKPLGLANDTDHYFLRYAVLPREVVCTENLTPWKKLLPCSSKAGLSVLLKADRLFHTSYHSQAVHIRPVCRNARCTSISWELRQTLSVVFDAFITGQGKKDWSLFRMFSRTLTEPCPLASESRVYVDITTYNQDNETLEVHPPPTTTYQDVILGTRKTYAIYDLLDTAMINNSRNLNIQLKWKRPPENEAPPVPFLHAQRYVSGYGLQKGELSTLLYNTHPYRAFPVLLLDTVPWYLRLYVHTLTITSKGKENKPSYIHYQPAQDRLQPHLLEMLIQLPANSVTKVSIQFERALLKWTEYTPDPNHGFYVSPSVLSALVPSMVAAKPVDWEESPLFNSLFPVSDGSNYFVRLYTEPLLVNLPTPDFSMPYNVICLTCTVVAVCYGSFYNLLTRTFHIEEPRTGGLAKRLANLIRRARGVPPL [PIGT] | 0.0123 | 53.8 | 52.5 | 1.75 | 1.86 | -0.141
MTMPVNGAHKDADLWSSHDKMLAQPLKDSDVEVYNIIKKESNRQRVGLELIASENFASRAVLEALGSCLNNKYSEGYPGQRYYGGTEFIDELETLCQKRALQAYKLDPQCWGVNVQPYSGSPANFAVYTALVEPHGRIMGLDLPDGGHLTHGFMTDKKKISATSIFFESMPYKVNPDTGYINYDQLEENARLFHPKLIIAGTSCYSRNLEYARLRKIADENGAYLMADMAHISGLVAAGVVPSPFEHCHVVTTTTHKTLRGCRAGMIFYRKGVKSVDPKTGKEILYNLESLINSAVFPGLQGGPHNHAIAGVAVALKQAMTLEFKVYQHQVVANCRALSEALTELGYKIVTGGSDNHLILVDLRSKGTDGGRAEKVLEACSIACNKNTCPGDRSALRPSGLRLGTPALTSRGLLEKDFQKVAHFIHRGIELTLQIQSDTGVRATLKEFKERLAGDKYQAAVQALREEVESFASLFPLPGLPDF [SHMT1] | 0.366 | 58.2 | 58.2 | -2.14 | -2.12 | -0.0876
CHID1 | -0.16 | 53.4 | 54 | 0.711 | 2.28 | -0.0199
MVLSQRQRDELNRAIADYLRSNGYEEAYSVFKKEAELDVNEELDKKYAGLLEKKWTSVIRLQKKVMELESKLNEAKEEFTSGGPLGQKRDPKEWIPRPPEKYALSGHRSPVTRVIFHPVFSVMVSASEDATIKVWDYETGDFERTLKGHTDSVQDISFDHSGKLLASCSADMTIKLWDFQGFECIRTMHGHDHNVSSVAIMPNGDHIVSASRDKTIKMWEVQTGYCVKTFTGHREWVRMVRPNQDGTLIASCSNDQTVRVWVVATKECKAELREHEHVVECISWAPESSYSSISEATGSETKKSGKPGPFLLSGSRDKTIKMWDVSTGMCLMTLVGHDNWVRGVLFHSGGKFILSCADDKTLRVWDYKNKRCMKTLNAHEHFVTSLDFHKTAPYVVTGSVDQTVKVWECR [PAFAH1B1] | -0.211 | 55.8 | 55.5 | 1.3 | -0.762 | -0.149
MAVAGAVSGEPLVHWCTQQLRKTFGLDVSEEIIQYVLSIESAEEIREYVTDLLQGNEGKKGQFIEELITKWQKNDQELISDPLQQCFKKDEILDGQKSGDHLKRGRKKGRNRQEVPAFTEPDTTAEVKTPFDLAKAQENSNSVKKKTKFVNLYTREGQDRLAVLLPGRHPCDCLGQKHKLINNCLICGRIVCEQEGSGPCLFCGTLVCTHEEQDILQRDSNKSQKLLKKLMSGVENSGKVDISTKDLLPHQELRIKSGLEKAIKHKDKLLEFDRTSIRRTQVIDDESDYFASDSNQWLSKLERETLQKREEELRELRHASRLSKKVTIDFAGRKILEEENSLAEYHSRLDETIQAIANGTLNQPLTKLDRSSEEPLGVLVNPNMYQSPPQWVDHTGAASQKKAFRSSGFGLEFNSFQHQLRIQDQEFQEGFDGGWCLSVHQPWASLLVRGIKRVEGRSWYTPHRGRLWIAATAKKPSPQEVSELQATYRLLRGKDVEFPNDYPSGCLLGCVDLIDCLSQKQFKEQFPDISQESDSPFVFICKNPQEMVVKFPIKGNPKIWKLDSKIHQGAKKGLMKQNKAV [TRIP4] | -0.111 | 50.6 | 49.4 | 1.04 | 0.759 | -0.0219
MNQEKLAKLQAQVRIGGKGTARRKKKVVHRTATADDKKLQSSLKKLAVNNIAGIEEVNMIKDDGTVIHFNNPKVQASLSANTFAITGHAEAKPITEMLPGILSQLGADSLTSLRKLAEQFPRQVLDSKAPKPEDIDEEDDDVPDLVENFDEASKNEAN [BTF3L4] | 0.114 | 56.3 | 54.6 | -0.215 | -1.23 | 0.243
MASGVTVNDEVIKVFNDMKVRKSSTQEEIKKRKKAVLFCLSDDKRQIIVEEAKQILVGDIGDTVEDPYTSFVKLLPLNDCRYALYDATYETKESKKEDLVFIFWAPESAPLKSKMIYASSKDAIKKKFTGIKHEWQVNGLDDIKDRSTLGEKLGGNVVVSLEGKPL [CFL2] | 0.129 | 55.1 | 54.2 | -0.937 | -3.81 | -0.058
MEPRPTAPSSGAPGLAGVGETPSAAALAAARVELPGTAVPSVPEDAAPASRDGGGVRDEGPAAAGDGLGRPLGPTPSQSRFQVDLVSENAGRAAAAAAAAAAAAAAAGAGAGAKQTPADGEASGESEPAKGSEEAKGRFRVNFVDPAASSSAEDSLSDAAGVGVDGPNVSFQNGGDTVLSEGSSLHSGGGGGSGHHQHYYYDTHTNTYYLRTFGHNTMDAVPRIDHYRHTAAQLGEKLLRPSLAELHDELEKEPFEDGFANGEESTPTRDAVVTYTAESKGVVKFGWIKGVLVRCMLNIWGVMLFIRLSWIVGQAGIGLSVLVIMMATVVTTITGLSTSAIATNGFVRGGGAYYLISRSLGPEFGGAIGLIFAFANAVAVAMYVVGFAETVVELLKEHSILMIDEINDIRIIGAITVVILLGISVAGMEWEAKAQIVLLVILLLAIGDFVIGTFIPLESKKPKGFFGYKSEIFNENFGPDFREEETFFSVFAIFFPAATGILAGANISGDLADPQSAIPKGTLLAILITTLVYVGIAVSVGSCVVRDATGNVNDTIVTELTNCTSAACKLNFDFSSCESSPCSYGLMNNFQVMSMVSGFTPLISAGIFSATLSSALASLVSAPKIFQALCKDNIYPAFQMFAKGYGKNNEPLRGYILTFLIALGFILIAELNVIAPIISNFFLASYALINFSVFHASLAKSPGWRPAFKYYNMWISLLGAILCCIVMFVINWWAALLTYVIVLGLYIYVTYKKPDVNWGSSTQALTYLNALQHSIRLSGVEDHVKNFRPQCLVMTGAPNSRPALLHLVHDFTKNVGLMICGHVHMGPRRQAMKEMSIDQAKYQRWLIKNKMKAFYAPVHADDLREGAQYLMQAAGLGRMKPNTLVLGFKKDWLQADMRDVDMYINLFHDAFDIQYGVVVIRLKEGLDISHLQGQEELLSSQEKSPGTKDVVVSVEYSKKSDLDTSKPLSEKPITHKVEEEDGKTATQPLLKKESKGPIVPLNVADQKLLEASTQFQKKQGKNTIDVWWLFDDGGLTLLIPYLLTTKKKWKDCKIRVFIGGKINRIDHDRRAMATLLSKFRIDFSDIMVLGDINTKPKKENIIAFEEIIEPYRLHEDDKEQDIADKMKEDEPWRITDNELELYKTKTYRQIRLNELLKEHSSTANIIVMSLPVARKGAVSSALYMAWLEALSKDLPPILLVRGNHQSVLTFYS [SLC12A2] | -0.0146 | 53.4 | 53.3 | 1.53 | 1.39 | -0.137
MAGVEEVAASGSHLNGDLDPDDREEGAASTAEEAAKKKRRKKKKSKGPSAAGEQEPDKESGASVDEVARQLERSALEDKERDEDDEDGDGDGDGATGKKKKKKKKKRGPKVQTDPPSVPICDLYPNGVFPKGQECEYPPTQDGRTAAWRTTSEEKKALDQASEEIWNDFREAAEAHRQVRKYVMSWIKPGMTMIEICEKLEDCSRKLIKENGLNAGLAFPTGCSLNNCAAHYTPNAGDTTVLQYDDICKIDFGTHISGRIIDCAFTVTFNPKYDTLLKAVKDATNTGIKCAGIDVRLCDVGEAIQEVMESYEVEIDGKTYQVKPIRNLNGHSIGQYRIHAGKTVPIVKGGEATRMEEGEVYAIETFGSTGKGVVHDDMECSHYMKNFDVGHVPIRLPRTKHLLNVINENFGTLAFCRRWLDRLGESKYLMALKNLCDLGIVDPYPPLCDIKGSYTAQFEHTILLRPTCKEVVSRGDDY [METAP2] | -0.0489 | 58.1 | 57 | -2.19 | -2.92 | -0.0109
MAAAKVALTKRADPAELRTIFLKYASIEKNGEFFMSPNDFVTRYLNIFGESQPNPKTVELLSGVVDQTKDGLISFQEFVAFESVLCAPDALFMVAFQLFDKAGKGEVTFEDVKQVFGQTTIHQHIPFNWDSEFVQLHFGKERKRHLTYAEFTQFLLEIQLEHAKQAFVQRDNARTGRVTAIDFRDIMVTIRPHVLTPFVEECLVAAAGGTTSHQVSFSYFNGFNSLLNNMELIRKIYSTLAGTRKDVEVTKEEFVLAAQKFGQVTPMEVDILFQLADLYEPRGRMTLADIERIAPLEEGTLPFNLAEAQRQKASGDSARPVLLQVAESAYRFGLGSVAGAVGATAVYPIDLVKTRMQNQRSTGSFVGELMYKNSFDCFKKVLRYEGFFGLYRGLLPQLLGVAPEKAIKLTVNDFVRDKFMHKDGSVPLAAEILAGGCAGGSQVIFTNPLEIVKIRLQVAGEITTGPRVSALSVVRDLGFFGIYKGAKACFLRDIPFSAIYFPCYAHVKASFANEDGQVSPGSLLLAGAIAGMPAASLVTPADVIKTRLQVAARAGQTTYSGVIDCFRKILREEGPKALWKGAGARVFRSSPQFGVTLLTYELLQRWFYIDFGGVKPMGSEPVPKSRINLPAPNPDHVGGYKLAVATFAGIENKFGLYLPLFKPSVSTSKAIGGGP [SLC25A13] | 0.0358 | 55.3 | 55.3 | -1.62 | -1.29 | -0.142
MSSQSHPDGLSGRDQPVELLNPARVNHMPSTVDVATALPLQVAPSAVPMDLRLDHQFSLPVAEPALREQQLQQELLALKQKQQIQRQILIAEFQRQHEQLSRQHEAQLHEHIKQQQEMLAMKHQQELLEHQRKLERHRQEQELEKQHREQKLQQLKNKEKGKESAVASTEVKMKLQEFVLNKKKALAHRNLNHCISSDPRYWYGKTQHSSLDQSSPPQSGVSTSYNHPVLGMYDAKDDFPLRKTASEPNLKLRSRLKQKVAERRSSPLLRRKDGPVVTALKKRPLDVTDSACSSAPGSGPSSPNNSSGSVSAENGIAPAVPSIPAETSLAHRLVAREGSAAPLPLYTSPSLPNITLGLPATGPSAGTAGQQDAERLTLPALQQRLSLFPGTHLTPYLSTSPLERDGGAAHSPLLQHMVLLEQPPAQAPLVTGLGALPLHAQSLVGADRVSPSIHKLRQHRPLGRTQSAPLPQNAQALQHLVIQQQHQQFLEKHKQQFQQQQLQMNKIIPKPSEPARQPESHPEETEEELREHQALLDEPYLDRLPGQKEAHAQAGVQVKQEPIESDEEEAEPPREVEPGQRQPSEQELLFRQQALLLEQQRIHQLRNYQASMEAAGIPVSFGGHRPLSRAQSSPASATFPVSVQEPPTKPRFTTGLVYDTLMLKHQCTCGSSSSHPEHAGRIQSIWSRLQETGLRGKCECIRGRKATLEELQTVHSEAHTLLYGTNPLNRQKLDSKKLLGSLASVFVRLPCGGVGVDSDTIWNEVHSAGAARLAVGCVVELVFKVATGELKNGFAVVRPPGHHAEESTPMGFCYFNSVAVAAKLLQQRLSVSKILIVDWDVHHGNGTQQAFYSDPSVLYMSLHRYDDGNFFPGSGAPDEVGTGPGVGFNVNMAFTGGLDPPMGDAEYLAAFRTVVMPIASEFAPDVVLVSSGFDAVEGHPTPLGGYNLSARCFGYLTKQLMGLAGGRIVLALEGGHDLTAICDASEACVSALLGNELDPLPEKVLQQRPNANAVRSMEKVMEIHSKYWRCLQRTTSTAGRSLIEAQTCENEEAETVTAMASLSVGVKPAEKRPDEEPMEEEPPL [HDAC4] | 0.188 | 53.3 | 52.9 | -0.241 | 0.236 | -0.072
